# T1: hsGLUT4 R265A (human, UniProt P14672 1-509)
# T1 sequence: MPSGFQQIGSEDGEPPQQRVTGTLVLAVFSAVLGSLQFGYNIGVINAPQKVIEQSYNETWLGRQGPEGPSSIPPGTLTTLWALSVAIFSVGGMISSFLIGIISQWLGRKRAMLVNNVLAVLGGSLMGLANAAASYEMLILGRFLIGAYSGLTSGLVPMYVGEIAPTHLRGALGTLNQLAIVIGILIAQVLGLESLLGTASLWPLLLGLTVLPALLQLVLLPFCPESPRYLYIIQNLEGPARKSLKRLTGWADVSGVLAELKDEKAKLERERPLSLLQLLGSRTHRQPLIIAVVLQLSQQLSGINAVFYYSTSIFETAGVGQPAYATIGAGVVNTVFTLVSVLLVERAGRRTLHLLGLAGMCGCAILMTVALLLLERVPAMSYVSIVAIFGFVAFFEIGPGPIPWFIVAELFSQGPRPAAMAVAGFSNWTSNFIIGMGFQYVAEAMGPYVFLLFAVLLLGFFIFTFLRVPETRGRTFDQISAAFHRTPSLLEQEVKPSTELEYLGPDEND
# T2: hsGLUT4 F405A (human, UniProt P14672 1-509)
# T2 sequence: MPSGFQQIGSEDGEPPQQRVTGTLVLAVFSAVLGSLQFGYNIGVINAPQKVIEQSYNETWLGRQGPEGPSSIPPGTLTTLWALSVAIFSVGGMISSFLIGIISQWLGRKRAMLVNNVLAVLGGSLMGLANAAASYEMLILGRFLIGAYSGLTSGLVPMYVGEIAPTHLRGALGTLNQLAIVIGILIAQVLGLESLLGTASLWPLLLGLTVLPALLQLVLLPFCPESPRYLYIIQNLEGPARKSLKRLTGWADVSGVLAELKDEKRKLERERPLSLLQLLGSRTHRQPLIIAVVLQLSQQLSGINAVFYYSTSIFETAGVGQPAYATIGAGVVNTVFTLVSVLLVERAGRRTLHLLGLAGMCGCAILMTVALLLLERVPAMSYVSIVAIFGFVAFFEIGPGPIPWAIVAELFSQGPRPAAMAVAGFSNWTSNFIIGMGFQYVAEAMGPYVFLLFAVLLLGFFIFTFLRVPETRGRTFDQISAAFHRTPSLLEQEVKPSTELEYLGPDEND
# T3: hsGLUT4 E162A (human, UniProt P14672 1-509)
# T3 sequence: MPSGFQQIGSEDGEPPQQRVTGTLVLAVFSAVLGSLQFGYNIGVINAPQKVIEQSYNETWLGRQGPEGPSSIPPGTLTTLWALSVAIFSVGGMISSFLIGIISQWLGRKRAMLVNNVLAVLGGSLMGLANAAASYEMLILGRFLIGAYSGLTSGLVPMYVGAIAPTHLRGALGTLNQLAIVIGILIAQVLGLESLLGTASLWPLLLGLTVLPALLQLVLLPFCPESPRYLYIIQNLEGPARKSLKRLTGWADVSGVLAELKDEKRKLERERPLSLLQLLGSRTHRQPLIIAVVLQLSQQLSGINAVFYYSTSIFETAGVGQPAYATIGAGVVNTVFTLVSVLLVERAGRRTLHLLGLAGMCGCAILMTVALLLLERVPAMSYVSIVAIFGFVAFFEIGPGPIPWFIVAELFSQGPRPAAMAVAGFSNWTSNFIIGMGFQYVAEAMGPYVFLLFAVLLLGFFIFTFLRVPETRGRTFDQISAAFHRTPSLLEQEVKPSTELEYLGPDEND
# T4: hsGLUT4 N304A (human, UniProt P14672 1-509)
# T4 sequence: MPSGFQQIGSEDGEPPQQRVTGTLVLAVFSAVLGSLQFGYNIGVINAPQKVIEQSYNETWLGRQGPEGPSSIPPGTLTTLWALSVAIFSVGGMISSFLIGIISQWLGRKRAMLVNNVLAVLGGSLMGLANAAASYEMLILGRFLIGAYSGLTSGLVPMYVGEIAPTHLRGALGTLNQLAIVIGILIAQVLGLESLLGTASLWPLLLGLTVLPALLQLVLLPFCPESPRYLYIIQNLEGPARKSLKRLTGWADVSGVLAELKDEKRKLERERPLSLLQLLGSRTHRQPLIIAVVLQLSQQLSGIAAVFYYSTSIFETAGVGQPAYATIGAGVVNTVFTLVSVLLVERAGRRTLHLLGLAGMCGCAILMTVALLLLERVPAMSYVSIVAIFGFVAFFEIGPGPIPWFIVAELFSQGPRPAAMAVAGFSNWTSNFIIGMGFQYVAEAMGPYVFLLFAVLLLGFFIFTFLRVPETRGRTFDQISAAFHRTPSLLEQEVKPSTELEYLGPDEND
# Assays:
# Assay in all cases: flow cytometry, alanine-scan library in HEK-293T, with cytochalasin B
# [1] = target: T1, hsGLUT4 R265A
# In short: (§1)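 HEK-293T cells expressing individual GLUT4 alanine mutants were stained 48 h post-transfection with anti-GLUT4 scFv MAbs (2 μg/ml), then biotinylated secondary and streptavidin-PerCP, and read by high-throughput flow cytometry. Where used, cytochalasin B (10 uM final) was given for 30 min before and during primary antibody staining.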
# [2] = target: T2, hsGLUT4 F405A
# In short: as §1
# [3] = target: T3, hsGLUT4 E162A
# In short: as §1
# [4] = target: T4, hsGLUT4 N304A
# In short: as §1
binder,measurement,setting,value
"AB102 (Fc fusion, also called MAb AB102; not shown: Fc fragment of human IgG1, cloned in frame with the scFv) scFv: ALTQPSSVSANLGGTVKITCSGGGSYGYGWYQQKSPGSAPVTVIYSNDQRPSDIPSRFSGSKSGSTATLTITGVRAEDEAIYYCGSTDSDYVGIFGAGTTLTVLGQSSRSSGGGGSSGGGGSAVTLDESGGGLQTPGGTLSLVCKASGFDFSSYATIWVRQAPGKGLEWVAGISGTGTGSSTGYAPAVKGRATISRDNGQSTVRLQLNNLRAEDTGSYFCAKSTGYGDSWIYPDSIDAWGHGTEVIVSS",% of binding to wild type GLUT4,[1],-5%
same,% of binding to wild type GLUT4,[2],105%
same,% of binding to wild type GLUT4,[3],7%
same,% of binding to wild type GLUT4,[4],112%

# From patent US20210238276A1 (INTEGRAL MOLECULAR, published 2021)
